In publication PMC11141937 (2024):

What was measured:
[1] = molecular target: T1, SARS-CoV-2 WT (WH01) S protein ectodomain (SARS-CoV-2, UniProt P0DTC2 14-1213); assay: ELISA
[2] = molecular target: RBD of SARS-CoV-2 WT S protein (SARS-CoV-2, UniProt P0DTC2); assay: ELISA
[3] = molecular target: S1 of SARS-CoV-2 WT S protein (SARS-CoV-2); assay: ELISA
[4] = molecular target: T1, SARS-CoV-2 WT (WH01) S protein …; assay: BLI
[5] = molecular target: SARS-CoV-2 WT (WH01) S protein on S-293T cells (SARS-CoV-2, UniProt P0DTC2); assay: FACS
WT NTD = assay: ELISA
WT S2 = assay: ELISA

B1: O5C2 mAb (antibody, V domains shown)
VH: EVQLVESGGGLIQPGGSLRLSCAASGIIVSRNYMSWVRQAPGKGLEWVSILYAGGSSFYAEPVQGRFTVSRDNSKNTLFLEMNSLRVEDTAVYYCARDLQWGIDIWGQGAMVTVSS
VL: DIQMTQTPPSLSASVGDRVSISCRASQSTGSWLAWYQQKPGKAPKLLIYKTSSLESGVPSRFSGSGSGTEFTLTISSLQPDDVATYYCQHYDTYSSTFGQGTKVEIK
Work on B1 yielded an EC50 [1] of 0.024 nM, an EC50 [2] of 0.018 nM and an EC50 [3] of 0.017 nM. For the same binder, the Kd [4] was 0.865 nM, the EC50 [5] was 0.177 nM and the EC50 (WT NTD) was > 1000 nM. The EC50 (WT S2) was > 1000 nM.
